The experiment concerns the target T1, Sec15 (S. cerevisiae, UniProt P22224 1-910).
T1 sequence: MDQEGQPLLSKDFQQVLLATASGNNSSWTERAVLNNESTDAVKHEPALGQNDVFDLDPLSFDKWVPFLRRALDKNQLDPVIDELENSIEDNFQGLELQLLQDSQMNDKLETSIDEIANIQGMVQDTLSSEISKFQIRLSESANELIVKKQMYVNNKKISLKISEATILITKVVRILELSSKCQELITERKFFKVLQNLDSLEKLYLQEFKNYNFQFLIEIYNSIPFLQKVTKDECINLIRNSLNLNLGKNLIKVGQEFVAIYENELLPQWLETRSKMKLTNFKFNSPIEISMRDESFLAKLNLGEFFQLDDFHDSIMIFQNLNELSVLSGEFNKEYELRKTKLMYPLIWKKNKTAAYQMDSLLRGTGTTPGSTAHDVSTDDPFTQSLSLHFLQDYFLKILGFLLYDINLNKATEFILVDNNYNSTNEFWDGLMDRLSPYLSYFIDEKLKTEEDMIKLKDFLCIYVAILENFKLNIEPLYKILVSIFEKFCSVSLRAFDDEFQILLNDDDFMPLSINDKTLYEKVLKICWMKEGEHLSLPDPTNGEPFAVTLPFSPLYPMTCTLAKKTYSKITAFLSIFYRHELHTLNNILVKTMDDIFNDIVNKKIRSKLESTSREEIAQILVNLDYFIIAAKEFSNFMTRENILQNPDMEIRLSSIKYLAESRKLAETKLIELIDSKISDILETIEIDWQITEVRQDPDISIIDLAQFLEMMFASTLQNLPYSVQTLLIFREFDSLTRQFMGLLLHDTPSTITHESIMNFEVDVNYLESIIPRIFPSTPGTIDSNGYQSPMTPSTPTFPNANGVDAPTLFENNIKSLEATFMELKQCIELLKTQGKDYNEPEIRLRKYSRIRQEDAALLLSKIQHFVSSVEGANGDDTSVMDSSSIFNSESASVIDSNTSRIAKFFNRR
As to the kind of experiment: […].

B1: Exo84 (natural protein)
chain: MVEFSLKKARNNWKHVKKSASSPAKQKTPPSPAKPKQKTKKNPYSDLKDPATSYTLPTINARERSRVATSMQRRLSIHNTNYAPPTLDYSMPLPDMPNMIVPNDNVDSSHNNSSFTTENESVSSKGPSNSLNLSTADLSLNDSSYNKVPARSAMRNTVNPSGSNDPFNNSTSLRKMLANPHFNAKDFVHDKLGNASAITIDKFTSNLTDLSIQVQEEVKLNINKSYNEIMTVNNDLNVAMLELKRVRANINDLNEVLDQCTKIAEKRLQLQDQIDQERQGNFNNVESHSNSPALLPPLKAGQNGNLMRRDRSSVLILEKFWDTELDQLFKNVEGAQKFINSTKGRHILMNSANWMELNTTTGKPLQMVQIFILNDLVLIADKSRDKQNDFIVSQCYPLKDVTVTQEEFSTKRLLFKFSNSNSSLYECRDADECSRLLDVIRKAKDDLCDIFHVEEENSKRIRESFRYLQSTQQTPGRENNRSPNKNKRRSMGGSITPGRNVTGAMDQYLLQNLTLSMHSRPRSRDMSSTAQRLKFLDEGVEEIDIELARLRFESAVETLLDIESQLEDLSERISDEELMLLNLISLKIEQRREAISSKLSQSILSSNEIVHLKSGTENMIKLGLPEQALDLFLQNRSNFIQDLILQIGSVDNPTNYLTQLAVIRFQTIKKTVEDFQDIFKELGAKISSILVDWCSDEVDNHFKLIDKQLLNDEMLSPGSIKSSRKQIDGLKAVGLDFVYKLDEFIKKNSDKIR
On to B1, for which the binding result is recorded as “binds”.

The record behind these values is publication PMC5971111 (Nature structural & molecular biology, 2018).
